Literature values in patent US20070166367A1, “Adept or gdept producing acetaldehyde” (priority 2004, published 2007).
Read-outs that look alike come from different tables or passages of the source.

enzymatic rate relative to the usual human ADH enzymes ('physiological' ethanol concentrations)	Molecule	Km (for ethanol) [µM]	Vmax relative to the usual human alpha, beta and gamma variants (pH 7.5)	Km [µM]
–	Human class IV: human class IV alcohol dehydrogenase (protein, UniProt P40394 1-386, looked up) All-trans-retinol …: MFAEIQIQDKDRMGTAGKVIKCKAAVLWEQKQPFSIEEIEVAPPKTKEVRIKILATGICRTDDHVIKGTMVSKFPVIVGHEATGIVESIGEGVTTVKPGDKVIPLFLPQCRECNACRNPDGNLCIRSDITGRGVLADGTTRFTCKGKPVHHFMNTSTFTEYTVVDESSVAKIDDAAPPEKVCLIGCGFSTGYGAAVKTGKVKPGSTCVVFGLGGVGLSVIMGCKSAGASRIIGIDLNKDKFEKAMAVGATECISPKDSTKPISEVLSEMTGNNVGYTFEVIGHLETMIDALASCHMNYGTSVVVGVPPSAKMLTYDPMLLFTGRTWKGCVFGGLKSRDDVPKLVTEFLAKKFDLDQLITHVLPFKKISEGFELLNSGQSIRTVLTF	37000	–	–
at least 16 fold	Human B2: human alcohol dehydrogenase β2, atypical liver class I enzyme, B2B2 homodimer (protein, UniProt P00325 2-375, looked up, beta2 allele homodimer) All-trans-retinol …: STAGKVIKCKAAVLWEVKKPFSIEDVEVAPPKAYEVRIKMVAVGICHTDDHVVSGNLVTPLPVILGHEAAGIVESVGEGVTTVKPGDKVIPLFTPQCGKCRVCKNPESNYCLKNDLGNPRGTLQDGTRRFTCRGKPIHHFLGTSTFSQYTVVDENAVAKIDAASPLEKVCLIGCGFSTGYGSAVNVAKVTPGSTCAVFGLGGVGLSAVMGCKAAGAARIIAVDINKDKFAKAKELGATECINPQDYKKPIQEVLKEMTDGGVDFSFEVIGRLDTMMASLLCCHEACGTSVIVGVPPASQNLSINPMLLLTGRTWKGAVYGGFKSKEGIPKLVADFMAKKFSLDALITHVLPFEKINEGFDLLHSGKSIRTVLTF	940	(Note at pH 7.5 the Vmax of beta 2 is 5-40 times higher that the usual human alpha, beta and gamma variants)	–
–	Human B1: usual human alcohol dehydrogenase B1 isoenzyme (protein, UniProt P00325 2-375, looked up) All-trans-retinol …: STAGKVIKCKAAVLWEVKKPFSIEDVEVAPPKAYEVRIKMVAVGICHTDDHVVSGNLVTPLPVILGHEAAGIVESVGEGVTTVKPGDKVIPLFTPQCGKCRVCKNPESNYCLKNDLGNPRGTLQDGTRRFTCRGKPIHHFLGTSTFSQYTVVDENAVAKIDAASPLEKVCLIGCGFSTGYGSAVNVAKVTPGSTCAVFGLGGVGLSAVMGCKAAGAARIIAVDINKDKFAKAKELGATECINPQDYKKPIQEVLKEMTDGGVDFSFEVIGRLDTMMASLLCCHEACGTSVIVGVPPASQNLSINPMLLLTGRTWKGAVYGGFKSKEGIPKLVADFMAKKFSLDALITHVLPFEKINEGFDLLHSGKSIRTVLTF	–	–	49
